Measured values reported in the FLAb antibody collection.

Assay: melting temperature
Settings: Circular dichroism

Sequence | Tm
EVQLVESGGGLVQPGGSLRLSCAASGSTFSSSSVGWYRQAPGKQRELVSAITSGGSTNTADSVKGRFTISRDNSKNTLYLQMNSLRAEDTAVYYCNVAGRNWVPISRYSPGPYWGQGTLVTVSS | 60.9 °C
QVQLVESGGGLVQAGGSLRLSCAASGRTYTMGWFRQAPGKEREFVAAMRWSDTDYADSLKGRFTISRDNANNAMYLQMNSLGPEDTAVYYCAAGEAWLARSTHHYDYWGQGTQVTVSS | 72.3 °C
TRVDQTPRTATKETGESLTIICVLTDTSCVLHSTSWFRKNPGTTDWERMSIGGRYVESVNKGAKSFSLRIKDLTVADSATYYCKAQSHEYMEVCPYDWYDGAGTVLTVK | 55 °C
QLQLVESGGGLVQAGGSLRLSCAASGRTFSSATMGWFRQAPGKEREFVAAISWSGLSRYYADSVKGRFTISRDNAENTVYLQMNSLKTEDTAVYYCAADSWGCSGLGCYDARQYDVWGQGTQVTVSS | 98.2 °C
QVQLVESGGGLVQPGGSLRLSCAASGYTYISGWFRQAPGQGLEAVAAIRSSDGTTYYADSVKGRFTISRDNSKNTLYLQMNSLRAEDTAVYYCAATEVAGWPLDIGIYDYWGQGTLVTVSS | 63.4 °C
AWVDQTPRTATKETGESLTINCVLTGTSCSLYSTSWFRKNPGTTDWERISIGGRYVESVNKGAKSFSLRIKDLTVADSATYYCKAQTADTWITVVIDGYDWYDGAGTALTVK | 59 °C

Same assay, conditions: DSF (SYPRO)

Sequence | Tm
QVKLEESGGGLVQAGGSLRLSCAASERTFSRYPVAWFRQAPGAEREFVAVISSTGTSTYYADSVKGRFTISRDNAKVTVYLQMNNLKREDTAVYFCAVNSQRTWLQDPNEYDYWGQGTQVTVSSGSEQKLISEEDLNHHHHHH | 77.3 °C
QVQLQESGGGSVQAGGSLKLSCAASGYIFSSCAMSWYRQAPGKERELVSSITSYGDAAYTDSAKGRFTISRDNAKNTLYLHLNNLKPEDTAVYFCAACPRNKYWGQGTQVTVSS | 68.4 °C
QVQLQESGGGSVQAGGSLRLSCVASEYDFNSYSSVSVGWFRQAPGKECVLVSRIGNDARTDYSDNVKGRFTISRDNAKRTAYLEMNSLKAEDTAVYYCAANQLSSAVVGTEYPCSKAAFAHWGQGTQVTVSS | 64.8 °C
QVQLVESGGGLVQAGGSLRLSCAVSGLGAHRVGWFRRAPGKEREFVAAIGANGGNTNYLDSVKGRFTISRDNAKNTIYLQMNSLKPQDTAVYYCAARDIETAEYTYWGQGTQVTVSS | 72.8 °C
QVKLEESGGGLVQAGGSLRLSCAASERTFSRYPVAWFRQAPGAEREFVAVISSTGTSTYYADSVKGRFTISRDNAKVTVYLQMNNLKREDTAVYFCAVNSQRRRLQDPNEYDYWGQGTQVTVSSGSEQKLISEEDLNHHHHHH | 79.1 °C
QVKLEESGGGLVQAGGSLRLSCAASERTFSRYPVAWFRQAPGAEREFVAVISSTGRSTYYADSVKGRFTISRDNAKVTVYLQMNNLKREDTAVYFCAVNSQRMRLQDPNEYDYWGQGTQVTVSSGSEQKLISEEDLNHHHHHH | 77 °C
EVQLQASGGGLVQPGGSLRLSCTASGSIFSINAMGWYRQTPRKERELVAAISEGGSTKYGDSVKGRFTISRDFAKNTQMVYLQMNSLKAEDTAVYYCKAQTEGPIADWGTSQYEYWGQGTQVTVSS | 51 °C
QVKLEESGGGLVQAGGSLRLSCAASERTFSRYPVAWFRQAPGAEREFVAVISSTGTSTYYADSVKGRFTISRDNAKVTVYLQMNNLKREDTAVYFCAVNSQRTRLQYPNEYDYWGQGTQVTVSSGSEQKLISEEDLNHHHHHH | 73.4 °C
QVQLQESGGGSVQAGGSLRLSCAASGYTYTMGWFRQAPGKEREGVTIIYTGYDNIVYADSVKGRFTISRDNAKNTVYLQMNNLKPEDTAMYHCAAATRGLPRSYFDPGWYDSWGQGTQVTVSS | 62.5 °C
QVKLEESGGGLVQAGGSLRLSCAASERTFSRYPVAWFRQAPGAEREFVAVISSTGTSTYYADSVKGRFTISRDNAKVTVYLQMNNLKREDTAVYFCAVNSKRMRLQDPNEYDYWGQGTQVTVSSGSEQKLISEEDLNHHHHHH | 81.3 °C
KVQLVESGGGLVQAGGSLRLACTASGSAFSINTMGWYRRAPGKQRELVASITSSGSTTYADSVKGRFTISRDSAKNTVFLQMNSVKPEDTSVYYCNGEIQRTDYNFWGQGTQVTVSS | 59.6 °C
QVKLEESGGGLVQAGGSLRLSCAASERTFSRYPVAWFRQAPGAEREFVAVISSTGTSTYYADSVKGRFTISRDNAKVTVYLQMNNLKREDTAVYFCAVNSQRWRLQDPNEYDYWGQGTQVTVSSGSEQKLISEEDLNHHHHHH | 77.5 °C
QVKLEESGGGLVQAGGSLRLSCAASERTFSRYPVAWFRQAPGAEREFVAVISSTGTSTYYADSVKGRFTISRDNAKVTVYLQMNNLKREDTAVYFCAVNSKRTRLQDPNEYDYWGQGTQVTVSSGSEQKLISEEDLNHHHHHH | 81.4 °C
DVQLVESGGGSVQAGGSLRLSCAASGYIASINYLGWFRQAPGKEREGVAAVSPAGGTPYYADSVKGRFTVSLDNAENTVYLQMNSLKPEDTALYYCAAARQGWYIPLNSYGYNYWGQGTQVTVSS | 74 °C
QVQLQESGGGSVQAGGSLRLSCAVSGYTYSRNCIGWFRQAPGKEREGVAALYTGGGSTYYAASVKGRFTISQDTKNTVYLQMNSLKPEDSAMYYCAANPFGLYTCGDLRGPDFGYWGQGTQVTVSS | 71 °C
QVKLEESGGGLVQAGGSLRLSCAASERTFSRYPVAWFRQAPGAEREFVAVISSTGTSTYYADSVKGRFTISRDNAKVTVYLQMNNLKREDTAVYFCAVNSQRTRLYDPNEYDYWGQGTQVTVSSGSEQKLISEEDLNHHHHHH | 79 °C
QVKLEESGGGLVQAGGSLRLSCAASERTFSRYPVAWFRQAPGAEREFVAVISSTGTSTYYADSVKGRFTISRDNAKVTVYLQMNNLKREDTAVYFCAVNSQRTRLQDPREYDYWGQGTQVTVSSGSEQKLISEEDLNHHHHHH | 77.6 °C
DVQLQASGGGLVQAGGSLRLSCAASGSTFSIKHHGWYRRAPGNQREWVAGINSENITNVAGAVKGRFTISRDNAKNTVYLQMNSLKVEDTAVYFCYAQDNDYRFLHRFWGQGTQVTVSLEPKTPKPQ | 52 °C
QVKLEESGGGLVQAGGSLRLSCAASERTFSRYPVAWFRQAPGAEREFVAVISSTGTSTYYADSVKGRFTISRDNAKVTVYLQMNNLKREDTAVYFCAVNSKRRRLQDPNEYDYWGQGTQVTVSSGSEQKLISEEDLNHHHHHH | 81.9 °C
QVKLEESGGGLVQAGGSLRLSCAASERTFSRYPVAWFRQAPGAEREFVAVISSTGRSTYYADSVKGRFTISRDNAKVTVYLQMNNLKREDTAVYFCAVNSKRRRLQDPNEYDYWGQGTQVTVSSGSEQKLISEEDLNHHHHHH | 81.6 °C
QVQLVESGGGSVQAGGSLRLSCAASGSISSITYLGWFRQAPGKEREGVAALSTSSGTTYYADSVKGRFTVSLDNAENTVYLQMNSLKPEDTALYYCAAASSGSSSPLSSSSYTYWGQGTQVTVSS | 95 °C
QVKLEESGGGLVQAGGSLRLSCAASERTFSRYPVAWFRQAPGAEREFVAVISSTGTSTYYADSVKGRFTISRDNAKVTVYLQMNNLKREDTAVYFCAVNSQRMRLQDPNEYDYWGQGTQVTVSSGSEQKLISEEDLNHHHHHH | 77.4 °C
QVKLEESGGGLVQAGGSLRLSCAASERTFSRYPVAWFRQAPGAEREFVAVISSTGTSTYYADSVKGRFTISRDNAKVTVYLQMNNLKREDTAVYFCAVNSQRTRLLDPNEYDYWGQGTQVTVSSGSEQKLISEEDLNHHHHHH | 80 °C
QVKLEESGGGLVQAGGSLRLSCAASERTFSRYPVAWFRQAPGAEREFVAVISSTGTSTYYADSVKGRFTISRDNAKVTVYLQMNNLKREDTAVYFCAVNSKRKRLQDPNEYDYWGQGTQVTVSSGSEQKLISEEDLNHHHHHH | 81.5 °C
EVQLQASGGGLVQAGSSLRLSCAASGLTTSTLYRMGWFRQAPGKEREFVGTITWSGGSTHYPDSLKGRFTISRDDAKNTGFLQMDSLKPEDTAIYYCAARTSAGIYDPTSPPAYDSWGQGTQVTVSS | 70 °C

Same assay, conditions: nanoDSF

Sequence | Tm
QVQLQESGGGSVQAGGSLKLSCAASGYIFSSCAMSWYRQAPGKERELVSSITSYGDAAYTDSAKGRFTISRDNAKNTLYLHLNNLKPEDTAVYFCAACPRNKYWGQGTQVTVSS | 63.6 °C
QVQLQESGGGSVQAGGSLRLSCVASEYDFNSYSSVSVGWFRQAPGKECVLVSRIGNDARTDYSDNVKGRFTISRDNAKRTAYLEMNSLKAEDTAVYYCAANQLSSAVVGTEYPCSKAAFAHWGQGTQVTVSS | 64.5 °C
TGGALVQAGGSLRLSCAASETSSVSLSWMGWYRQAPGKERELVAGINRDRPKYKESVKGRFTISRDNAQNTVYLQMNSLKPEDTAVYYCNTVPPRGDYWGQGTQV | 65.7 °C
QVQLQESGGGSVQAGGSLRLSCAASGYTYTMGWFRQAPGKEREGVTIIYTGYDNIVYADSVKGRFTISRDNAKNTVYLQMNNLKPEDTAMYHCAAATRGLPRSYFDPGWYDSWGQGTQVTVSS | 70 °C
KVQLVESGGGLVQAGGSLRLACTASGSAFSINTMGWYRRAPGKQRELVASITSSGSTTYADSVKGRFTISRDSAKNTVFLQMNSVKPEDTSVYYCNGEIQRTDYNFWGQGTQVTVSS | 63.5 °C
TGGGWVQAGGSLRLSCAASGRAASGNAMAWFRQAPGKEREFVALISWSGGRPYYANSVKGRFAISRDNATNTVYLQMNRLKPEDTAVYYCAASPTIAILPTPYDYWGQGTQV | 75.3 °C
